For the experiment, the target named is T1, FcγRIa extracellular domain with C-terminal His tag (human, UniProt P12314 16-292).
T1 construct: extracellular domain; Expressed in FreeStyle293 cells; analyte in Biacore; also called FcgRI; FcgRIa
Nature of the experiment: SPR Biacore, antibody captured, FcγRIa analyte; vs GpH7-A5/GpH7-B3/GpL16-k0 = 100. (In general: Surface plasmon resonance follows binding to a sensor surface in real time, without labels.)

Here are results for eight molecules from US20180155451A1 (published 2018).

T1 sequence (P12314 16-292): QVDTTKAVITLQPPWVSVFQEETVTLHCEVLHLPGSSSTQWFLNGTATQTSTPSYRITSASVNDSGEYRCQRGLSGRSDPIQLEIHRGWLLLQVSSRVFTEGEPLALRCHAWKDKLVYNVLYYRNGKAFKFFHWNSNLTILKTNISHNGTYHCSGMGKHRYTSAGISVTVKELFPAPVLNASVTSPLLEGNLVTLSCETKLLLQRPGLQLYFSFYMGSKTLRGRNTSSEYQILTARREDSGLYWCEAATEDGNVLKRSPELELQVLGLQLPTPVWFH

B1: GpH7-A5/GpH7-B3 variant A330_08L/GpL16-k0 (He Ab) (antibody, human IgG1, kappa)
heavy 1: not shown
heavy 2: not shown
light: DIVMTQSPLSLPVTPGEPASISCQASESLVHSNRNTYLHWYLQKPGQSPQLLIYKVSNRFSGVPDRFSGSGSGTDFTLKISRVEAEDVGVYYCSQNTHVPPTFGQGTKVEIERTVAAPSVFIFPPSDEQLKSGTASVVCLLNNFYPREAKVQWKVDNALQSGNSQESVTEQDSKDSTYSLSSTLTLSKADYEKHKVYACEVTHQGLSSPVTKSFNRGEC
notes: He Ab: alteration only in the GpH7-B3 chain
Turning to B1, the He/Con_1a is 107 relative (control = 100).

B2: GpH7-A5/GpH7-B3 variant E269_06M/GpL16-k0 (He Ab) (antibody, human IgG1, kappa)
heavy 1: not shown
heavy 2: not shown
light: DIVMTQSPLSLPVTPGEPASISCQASESLVHSNRNTYLHWYLQKPGQSPQLLIYKVSNRFSGVPDRFSGSGSGTDFTLKISRVEAEDVGVYYCSQNTHVPPTFGQGTKVEIERTVAAPSVFIFPPSDEQLKSGTASVVCLLNNFYPREAKVQWKVDNALQSGNSQESVTEQDSKDSTYSLSSTLTLSKADYEKHKVYACEVTHQGLSSPVTKSFNRGEC
notes: as for B1
For the molecule B2, the He/Con_1a is 104 relative (control = 100).

B3: GpH7-A5/GpH7-B3 variant A330_09D/GpL16-k0 (He Ab) (antibody, human IgG1, kappa)
heavy 1: not shown
heavy 2: not shown
light: DIVMTQSPLSLPVTPGEPASISCQASESLVHSNRNTYLHWYLQKPGQSPQLLIYKVSNRFSGVPDRFSGSGSGTDFTLKISRVEAEDVGVYYCSQNTHVPPTFGQGTKVEIERTVAAPSVFIFPPSDEQLKSGTASVVCLLNNFYPREAKVQWKVDNALQSGNSQESVTEQDSKDSTYSLSSTLTLSKADYEKHKVYACEVTHQGLSSPVTKSFNRGEC
notes: as for B1
Turning to B3, the He/Con_1a was 109 relative (control = 100).

B4: GpH7-A5/GpH7-B3 variant E333_01G/GpL16-k0 (He Ab) (antibody, human IgG1, kappa)
heavy 1: not shown
heavy 2: not shown
light: DIVMTQSPLSLPVTPGEPASISCQASESLVHSNRNTYLHWYLQKPGQSPQLLIYKVSNRFSGVPDRFSGSGSGTDFTLKISRVEAEDVGVYYCSQNTHVPPTFGQGTKVEIERTVAAPSVFIFPPSDEQLKSGTASVVCLLNNFYPREAKVQWKVDNALQSGNSQESVTEQDSKDSTYSLSSTLTLSKADYEKHKVYACEVTHQGLSSPVTKSFNRGEC
notes: as for B1
On to B4, for which the He/Con_1a was 103 relative (control = 100).

B5: GpH7-A5/GpH7-B3 variant E269_15Y/GpL16-k0 (He Ab) (antibody, human IgG1, kappa)
heavy 1: not shown
heavy 2: not shown
light: DIVMTQSPLSLPVTPGEPASISCQASESLVHSNRNTYLHWYLQKPGQSPQLLIYKVSNRFSGVPDRFSGSGSGTDFTLKISRVEAEDVGVYYCSQNTHVPPTFGQGTKVEIERTVAAPSVFIFPPSDEQLKSGTASVVCLLNNFYPREAKVQWKVDNALQSGNSQESVTEQDSKDSTYSLSSTLTLSKADYEKHKVYACEVTHQGLSSPVTKSFNRGEC
notes: as for B1
Take B5: the He/Con_1a was 106 relative (control = 100).

B6: GpH7-A5/GpH7-B3 variant E269_04F/GpL16-k0 (He Ab) (antibody, human IgG1, kappa)
heavy 1: not shown
heavy 2: not shown
light: DIVMTQSPLSLPVTPGEPASISCQASESLVHSNRNTYLHWYLQKPGQSPQLLIYKVSNRFSGVPDRFSGSGSGTDFTLKISRVEAEDVGVYYCSQNTHVPPTFGQGTKVEIERTVAAPSVFIFPPSDEQLKSGTASVVCLLNNFYPREAKVQWKVDNALQSGNSQESVTEQDSKDSTYSLSSTLTLSKADYEKHKVYACEVTHQGLSSPVTKSFNRGEC
notes: as for B1
Consider B6, for which the He/Con_1a is 103 relative (control = 100).

B7: GpH7-A5/GpH7-B3 variant A330_14T/GpL16-k0 (He Ab) (antibody, human IgG1, kappa)
heavy 1: not shown
heavy 2: not shown
light: DIVMTQSPLSLPVTPGEPASISCQASESLVHSNRNTYLHWYLQKPGQSPQLLIYKVSNRFSGVPDRFSGSGSGTDFTLKISRVEAEDVGVYYCSQNTHVPPTFGQGTKVEIERTVAAPSVFIFPPSDEQLKSGTASVVCLLNNFYPREAKVQWKVDNALQSGNSQESVTEQDSKDSTYSLSSTLTLSKADYEKHKVYACEVTHQGLSSPVTKSFNRGEC
notes: as for B1
As to B7, the He/Con_1a was 105 relative (control = 100).

B8: GpH7-A5/GpH7-B3 variant E269_08L/GpL16-k0 (He Ab) (antibody, human IgG1, kappa)
heavy 1: not shown
heavy 2: not shown
light: DIVMTQSPLSLPVTPGEPASISCQASESLVHSNRNTYLHWYLQKPGQSPQLLIYKVSNRFSGVPDRFSGSGSGTDFTLKISRVEAEDVGVYYCSQNTHVPPTFGQGTKVEIERTVAAPSVFIFPPSDEQLKSGTASVVCLLNNFYPREAKVQWKVDNALQSGNSQESVTEQDSKDSTYSLSSTLTLSKADYEKHKVYACEVTHQGLSSPVTKSFNRGEC
notes: as for B1
Regarding B8, the He/Con_1a is 104 relative (control = 100).
